B1: CIgG4F1A1(G4S)1 (Fc fusion)
chain 1: GPPCPPCPAPEFLGGPSVFLFPPKPKDTLMISRTPEVTCVVVDVSQEDPEVQFNWYVDGVEVHNAKTKPREEQFNSTYRVVSVLTVLHQDWLNGKEYKCKVSNKGLPSSIEKTISKAKGQPREPQVYTLPPCQEEMTKNQVSLWCLVKGFYPSDIAVEWESNGQPENNYKTTPPVLDSDGSFFLYSRLTVDKSRWQEGNVFSCSVMHEALHNHYTQKSLSLSLGKGGGGSDVQLQESGGGLVQAGGSLKLSCAASGGSLSRYDMGWFRQAPGKEREFVARISWSGTTKYYADAVKGRFAISRDNAKNTVYLQMNSLKPEDTAVYYCAAAFYGNRGYYDVNAYTSSGQGTQVTVS
chain 2: GPPCPPCPAPEFLGGPSVFLFPPKPKDTLMISRTPEVTCVVVDVSQEDPEVQFNWYVDGVEVHNAKTKPREEQFNSTYRVVSVLTVLHQDWLNGKEYKCKVSNKGLPSSIEKTISKAKGQPREPQVCTLPPSQEEMTKNQVSLSCAVKGFYPSDIAVEWESNGQPENNYKTTPPVLDSDGSFFLVSRLTVDKSRWQEGNVFSCSVMHEALHNHYTQKSLSLSLGKGGGGSEVQLLESGGGLVQPGGSLRLSCAASGFTFGNYDMAWVRQAPGKRPEWVSSIDTGGDITHYADSVKGRFTISRDNAKNTLYLQMNSLRPEDTAVYWCATDEEYALGPNEFDYYGQGTLVTVSS
B2: CIgG4F2A1(G4S)1 (Fc fusion)
chain 1: B1 chain 1 with T286D, K295E, K306Q, A328V, F330L, A341T, T343S, S344Y, S345W, Q350R
chain 2: B1 chain 2
B3: CIgG4E4A1(G4S)3 (Fc fusion)
chain 1: GPPCPPCPAPEFLGGPSVFLFPPKPKDTLMISRTPEVTCVVVDVSQEDPEVQFNWYVDGVEVHNAKTKPREEQFNSTYRVVSVLTVLHQDWLNGKEYKCKVSNKGLPSSIEKTISKAKGQPREPQVYTLPPCQEEMTKNQVSLWCLVKGFYPSDIAVEWESNGQPENNYKTTPPVLDSDGSFFLYSRLTVDKSRWQEGNVFSCSVMHEALHNHYTQKSLSLSLGKGGGGSGGGGSGGGGSDVQLQESGGGLVQPGGSLRLSCAASGFRFSNYAMRWYRQAPGKEREFVARISSTGFITRYTASVRDRFTISRDNDKNMMYLQLNKLTPQDTAHYYCNAESTDYWGQGTQVTVS
chain 2: GPPCPPCPAPEFLGGPSVFLFPPKPKDTLMISRTPEVTCVVVDVSQEDPEVQFNWYVDGVEVHNAKTKPREEQFNSTYRVVSVLTVLHQDWLNGKEYKCKVSNKGLPSSIEKTISKAKGQPREPQVCTLPPSQEEMTKNQVSLSCAVKGFYPSDIAVEWESNGQPENNYKTTPPVLDSDGSFFLVSRLTVDKSRWQEGNVFSCSVMHEALHNHYTQKSLSLSLGKGGGGSGGGGSGGGGSEVQLLESGGGLVQPGGSLRLSCAASGFTFGNYDMAWVRQAPGKRPEWVSSIDTGGDITHYADSVKGRFTISRDNAKNTLYLQMNSLRPEDTAVYWCATDEEYALGPNEFDYYGQGTLVTVSS
B4: CIgG4F1A1(G4S)3 (Fc fusion)
chain 1: GPPCPPCPAPEFLGGPSVFLFPPKPKDTLMISRTPEVTCVVVDVSQEDPEVQFNWYVDGVEVHNAKTKPREEQFNSTYRVVSVLTVLHQDWLNGKEYKCKVSNKGLPSSIEKTISKAKGQPREPQVYTLPPCQEEMTKNQVSLWCLVKGFYPSDIAVEWESNGQPENNYKTTPPVLDSDGSFFLYSRLTVDKSRWQEGNVFSCSVMHEALHNHYTQKSLSLSLGKGGGGSGGGGSGGGGSDVQLQESGGGLVQAGGSLKLSCAASGGSLSRYDMGWFRQAPGKEREFVARISWSGTTKYYADAVKGRFAISRDNAKNTVYLQMNSLKPEDTAVYYCAAAFYGNRGYYDVNAYTSSGQGTQVTVS
chain 2: B3 chain 2
B5: CIgG4E4A1(G4S)2 (Fc fusion)
chain 1: GPPCPPCPAPEFLGGPSVFLFPPKPKDTLMISRTPEVTCVVVDVSQEDPEVQFNWYVDGVEVHNAKTKPREEQFNSTYRVVSVLTVLHQDWLNGKEYKCKVSNKGLPSSIEKTISKAKGQPREPQVYTLPPCQEEMTKNQVSLWCLVKGFYPSDIAVEWESNGQPENNYKTTPPVLDSDGSFFLYSRLTVDKSRWQEGNVFSCSVMHEALHNHYTQKSLSLSLGKGGGGSGGGGSDVQLQESGGGLVQPGGSLRLSCAASGFRFSNYAMRWYRQAPGKEREFVARISSTGFITRYTASVRDRFTISRDNDKNMMYLQLNKLTPQDTAHYYCNAESTDYWGQGTQVTVS
chain 2: GPPCPPCPAPEFLGGPSVFLFPPKPKDTLMISRTPEVTCVVVDVSQEDPEVQFNWYVDGVEVHNAKTKPREEQFNSTYRVVSVLTVLHQDWLNGKEYKCKVSNKGLPSSIEKTISKAKGQPREPQVCTLPPSQEEMTKNQVSLSCAVKGFYPSDIAVEWESNGQPENNYKTTPPVLDSDGSFFLVSRLTVDKSRWQEGNVFSCSVMHEALHNHYTQKSLSLSLGKGGGGSGGGGSEVQLLESGGGLVQPGGSLRLSCAASGFTFGNYDMAWVRQAPGKRPEWVSSIDTGGDITHYADSVKGRFTISRDNAKNTLYLQMNSLRPEDTAVYWCATDEEYALGPNEFDYYGQGTLVTVSS
B6: CIgG4F1A1(G4S)2 (Fc fusion)
chain 1: GPPCPPCPAPEFLGGPSVFLFPPKPKDTLMISRTPEVTCVVVDVSQEDPEVQFNWYVDGVEVHNAKTKPREEQFNSTYRVVSVLTVLHQDWLNGKEYKCKVSNKGLPSSIEKTISKAKGQPREPQVYTLPPCQEEMTKNQVSLWCLVKGFYPSDIAVEWESNGQPENNYKTTPPVLDSDGSFFLYSRLTVDKSRWQEGNVFSCSVMHEALHNHYTQKSLSLSLGKGGGGSGGGGSDVQLQESGGGLVQAGGSLKLSCAASGGSLSRYDMGWFRQAPGKEREFVARISWSGTTKYYADAVKGRFAISRDNAKNTVYLQMNSLKPEDTAVYYCAAAFYGNRGYYDVNAYTSSGQGTQVTVS
chain 2: B5 chain 2
B7: CIgG4F1A1(RS) (Fc fusion)
chain 1: GPPCPPCPAPEFLGGPSVFLFPPKPKDTLMISRTPEVTCVVVDVSQEDPEVQFNWYVDGVEVHNAKTKPREEQFNSTYRVVSVLTVLHQDWLNGKEYKCKVSNKGLPSSIEKTISKAKGQPREPQVYTLPPCQEEMTKNQVSLWCLVKGFYPSDIAVEWESNGQPENNYKTTPPVLDSDGSFFLYSRLTVDKSRWQEGNVFSCSVMHEALHNHYTQKSLSLSLGKRSDVQLQESGGGLVQAGGSLKLSCAASGGSLSRYDMGWFRQAPGKEREFVARISWSGTTKYYADAVKGRFAISRDNAKNTVYLQMNSLKPEDTAVYYCAAAFYGNRGYYDVNAYTSSGQGTQVTVS
chain 2: GPPCPPCPAPEFLGGPSVFLFPPKPKDTLMISRTPEVTCVVVDVSQEDPEVQFNWYVDGVEVHNAKTKPREEQFNSTYRVVSVLTVLHQDWLNGKEYKCKVSNKGLPSSIEKTISKAKGQPREPQVCTLPPSQEEMTKNQVSLSCAVKGFYPSDIAVEWESNGQPENNYKTTPPVLDSDGSFFLVSRLTVDKSRWQEGNVFSCSVMHEALHNHYTQKSLSLSLGKRSEVQLLESGGGLVQPGGSLRLSCAASGFTFGNYDMAWVRQAPGKRPEWVSSIDTGGDITHYADSVKGRFTISRDNAKNTLYLQMNSLRPEDTAVYWCATDEEYALGPNEFDYYGQGTLVTVSS
B8: CIgG4F2A1(RS) (Fc fusion)
chain 1: B7 chain 1 with T283D, K292E, K303Q, A325V, F327L, A338T, T340S, S341Y, S342W, Q347R
chain 2: B7 chain 2

Changes are numbered by the printed parent chain. Names may count otherwise.

As usually defined, the EC50 is the midpoint of the concentration-response curve.

In the experiment the target is T1, recombinant human IgE (human, UniProt P01854-1 1-428).
T1 construct: made in-house (ALK); preloaded on immobilised FcεRIα in the displacement ELISA
T1 sequence (P01854 other isoform, or with tags, fused parts or gaps): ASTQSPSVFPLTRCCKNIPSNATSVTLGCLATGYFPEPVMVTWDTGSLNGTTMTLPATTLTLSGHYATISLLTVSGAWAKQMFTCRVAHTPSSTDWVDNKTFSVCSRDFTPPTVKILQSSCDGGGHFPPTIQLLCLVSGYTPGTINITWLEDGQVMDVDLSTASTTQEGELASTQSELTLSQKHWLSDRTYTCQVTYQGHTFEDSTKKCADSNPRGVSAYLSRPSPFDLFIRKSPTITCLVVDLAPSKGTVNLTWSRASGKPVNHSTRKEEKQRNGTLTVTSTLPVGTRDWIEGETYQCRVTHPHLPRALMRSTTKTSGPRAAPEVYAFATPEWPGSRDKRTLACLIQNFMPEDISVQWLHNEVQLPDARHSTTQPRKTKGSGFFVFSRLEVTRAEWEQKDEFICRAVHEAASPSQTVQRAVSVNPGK
The experiment is described as follows: IgE-FcεRIα displacement ELISA. The method, boiled down:
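sdAbs at pM–μM were incubated 1 h on preformed complexes of 13 ng/ml recombinant human IgE with avi-tag-biotinylated human FcεRIα captured on streptavidin.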
A general note: In an ELISA, binding on a coated surface is turned into a signal by an enzyme label.
For B1, the Max effect amounted to 30%.

Consider B2, for which the Max effect was 20%.

On to B3, for which the EC50 was determined as 22 nM and the Max effect worked out at 95%.

As to B4, the EC50 came out at 480 nM and the Max effect came to 65%.

As to B5, the EC50 stood at 48 nM and the Max effect turned out to be 90%.

With B6, the EC50 is 800 nM and the Max effect came to 55%.

Regarding B7, the Max effect came out at 0%.

Consider B8, for which the Max effect came to 10%.

Values taken from US20250171562A1 (ALK ABELL, published 2025).
